Source: patent US20140087995A1 (published 2014)
Substitutions are numbered along the chain they refer to. Numbered stars: 1 amine (or outer) side, 2 acyl side, 3 side chain; on linkers, the order of the positions; unused ones are H or OH. Bridge positions count the residues as written; N and C are the ends. Side chains are listed from the residue outwards. Ends that are not written are not given here. * marks the point of attachment. C20 diacid = O=C(O)CCCCCCCCCCCCCCCCCCC(=O)*; γGlu = O=C(O)[C@H](CCC(=O)[*:2])N[*:1]; AEEA = NCCOCCOCC(=O)O

T1: rat calcitonin receptor (rat, UniProt P32214 25-516)
T1 construct: whole, on cells; membranes of transiently transfected BHK tk'ts 13 cells (Assay VIII); also called rCTR; rat calcitonin (a) receptor
T1 sequence (looked up): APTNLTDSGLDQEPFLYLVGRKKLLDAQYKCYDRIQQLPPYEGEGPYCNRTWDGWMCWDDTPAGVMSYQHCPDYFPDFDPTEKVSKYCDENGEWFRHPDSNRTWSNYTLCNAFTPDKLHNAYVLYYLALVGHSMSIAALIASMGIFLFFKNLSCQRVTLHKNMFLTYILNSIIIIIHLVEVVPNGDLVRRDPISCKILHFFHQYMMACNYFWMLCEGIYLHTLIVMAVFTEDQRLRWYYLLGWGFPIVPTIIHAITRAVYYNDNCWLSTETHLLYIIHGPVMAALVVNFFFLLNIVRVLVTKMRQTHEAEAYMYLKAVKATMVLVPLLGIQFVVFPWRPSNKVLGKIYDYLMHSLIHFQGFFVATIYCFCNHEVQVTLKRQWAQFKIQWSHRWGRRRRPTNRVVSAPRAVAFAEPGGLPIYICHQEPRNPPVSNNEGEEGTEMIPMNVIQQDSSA

T2: human calcitonin receptor (human, UniProt P30988 25-474)
T2 construct: whole, on cells; membranes of stably transfected BHK cells (Assay VII); also called hCTR; hCT
T2 sequence (looked up): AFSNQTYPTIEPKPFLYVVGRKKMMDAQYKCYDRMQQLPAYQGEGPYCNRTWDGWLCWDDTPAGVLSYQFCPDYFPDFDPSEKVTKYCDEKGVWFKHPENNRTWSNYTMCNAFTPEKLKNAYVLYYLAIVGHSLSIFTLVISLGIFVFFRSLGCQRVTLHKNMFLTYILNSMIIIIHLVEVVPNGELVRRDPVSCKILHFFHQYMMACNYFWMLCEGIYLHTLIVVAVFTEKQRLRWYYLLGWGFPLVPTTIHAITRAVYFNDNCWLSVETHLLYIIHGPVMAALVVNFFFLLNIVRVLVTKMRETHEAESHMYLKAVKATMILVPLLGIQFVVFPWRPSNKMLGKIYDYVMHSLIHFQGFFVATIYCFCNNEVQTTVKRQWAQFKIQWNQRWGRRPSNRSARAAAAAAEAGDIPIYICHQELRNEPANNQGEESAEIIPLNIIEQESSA

T3: rat amylin receptor (rat calcitonin receptor + rat RAMP 3) (rat, UniProt P32214 25-516; Q9JJ73 23-147)
T3 construct: whole, on cells; membranes of transiently transfected BHK tk'ts 13 cells (Assay VI); also called rAmylin-R; rat amylin 3(a) receptor
T3 sequence (looked up) 1: T1 sequence (looked up)
T3 sequence (looked up) 2: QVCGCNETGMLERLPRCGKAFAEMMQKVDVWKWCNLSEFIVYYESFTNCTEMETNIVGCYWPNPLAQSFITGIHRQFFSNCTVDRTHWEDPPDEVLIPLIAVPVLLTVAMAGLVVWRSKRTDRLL

B1: N^α1-[(4S)-4-carboxy-4-(19-carboxynonadecanoylamino)butanoyl]-[Arg17,Pro21,Pro27]-h-amylin (peptide)
peptide: KCNTATCATQRLANFLRHSSPNFGAIPSSTNVGSNTY
modifications: C20 diacid-gGlu on the alpha amino group of the N-terminal residue (Lys 1); disulfide bridge between the two Cys residues; C-terminal amide
notes: analogue of human amylin; also called compound 21
B2: N^α1-[(4S)-4-carboxy-4-(19-carboxynonadecanoylamino)butanoyl]-[Glu14,Arg17,Pro21,Pro26]-h-amylin (peptide)
peptide: {C20 diacid-γGlu}-KCNTATCATQRLAEFLRHSSPNFGAPLSSTNVGSNTY-NH2
modifications: disulfide 2-7 (inferred)
notes: analogue of human amylin; also called compound 7
B3: N^α1-[(4S)-4-carboxy-4-(19-carboxynonadecanoylamino)butanoyl]-[Arg17,Pro21,Pro27,Lys35]-h-amylin (peptide)
peptide: B1 peptide with N35K
modifications: C20 diacid-gGlu on the alpha amino group of the N-terminal residue (Lys 1); disulfide bridge between the two Cys residues; C-terminal amide
notes: analogue of human amylin; also called compound 34
B4: N^α1-[(4S)-4-carboxy-4-(19-carboxynonadecanoylamino)butanoyl]-[His14,Arg17,Pro21,Pro27,Glu35]-h-amylin (peptide)
peptide: {C20 diacid-γGlu}-KCNTATCATQRLAHFLRHSSPNFGAIPSSTNVGSETY-NH2
modifications: disulfide 2-7 (inferred)
notes: analogue of human amylin; also called compound 30
B5: N^ε1-[2-[2-[2-[[(4S)-4-carboxy-4-(19-carboxynonadecanoylamino)butanoyl]amino]ethoxy]ethoxy]acetyl]-[Arg17,Pro21,Pro27,Pro31]-h-amylin (peptide)
peptide: K([AEEA-γGlu-C20 diacid])CNTATCATQRLANFLRHSSPNFGAIPSSTPVGSNTY-NH2
modifications: disulfide 2-7 (inferred)
notes: analogue of human amylin; also called compound 49
B6: N^α1-[(4S)-4-carboxy-4-(19-carboxynonadecanoylamino)butanoyl]-[Glu14,Arg17,Pro21,Pro27,Pro31]-h-amylin (peptide)
peptide: {C20 diacid-γGlu}-KCNTATCATQRLAEFLRHSSPNFGAIPSSTPVGSNTY-NH2
modifications: disulfide 2-7 (inferred)
notes: analogue of human amylin; also called compound 31
B7: N^α1-[(4S)-4-carboxy-4-(19-carboxynonadecanoylamino)butanoyl]-[Glu14,Arg17,Pro21,Pro27,Arg35]-h-amylin (peptide)
peptide: {C20 diacid-γGlu}-KCNTATCATQRLAEFLRHSSPNFGAIPSSTNVGSRTY-NH2
modifications: disulfide 2-7 (inferred)
notes: analogue of human amylin; also called compound 16
B8: N^ε1-[2-[2-[2-[[(4S)-4-carboxy-4-(19-carboxynonadecanoylamino)butanoyl]amino]ethoxy]ethoxy]acetyl]-[Arg17,Pro21,Pro27,Pro34]-h-amylin (peptide)
peptide: K([AEEA-γGlu-C20 diacid])CNTATCATQRLANFLRHSSPNFGAIPSSTNVGPNTY-NH2
modifications: disulfide 2-7 (inferred)
notes: analogue of human amylin; also called compound 50
B9: N^α1-[(4S)-4-carboxy-4-(19-carboxynonadecanoylamino)butanoyl]-[Arg17,Pro21,Pro27,Arg34]-h-amylin (peptide)
peptide: B1 peptide with S34R
modifications: C20 diacid-gGlu on the alpha amino group of the N-terminal residue (Lys 1); disulfide bridge between the two Cys residues; C-terminal amide
notes: analogue of human amylin; also called compound 39

biological target: T1, rat calcitonin receptor; assay: IC50 on rat calcitonin receptor divided by IC50 on rat amylin receptor (SPA competition)

Ratio rCT/rAmylin binding | Binder
18.8 | B1
42 | B2
52 | B3
36.1 | B4
47.7 | B5
42.8 | B6
45.6 | B7
81.7 | B8
54.5 | B9

biological target: T2, human calcitonin receptor; assay: IC50 on human calcitonin receptor divided by IC50 on human amylin receptor (SPA competition)
Description: The resulting pellet was resuspended, homogenized and centrifuged (20.000 rpm, 15 min) in a buffer containing 20 mM Na-HEPES and 0.1 mM EDTA (pH 7.4, buffer 2). The resulting pellet was resuspended in buffer 2 and protein concentration was measured (BCA protein Assay, Pierce). The homogenate was kept cold during the whole procedure. The membranes were kept at −80° C. until use. The assay was performed in a 384 well Optiplate (PerkinElmer) in a total volume of 40 ul. Membranes were mixed with SPA beads. Final concentration of membranes 35 ng/μL final and SPA beads was 0.05 mg/well. Test-compounds were dissolved in DMSO and further diluted in assay buffer (50 mM Hepes, pH 7.4, 1 mM CaCl2, 5 mM MgCl₂, 0.1% OA and 0.02% Tween20). […] The final mixture was incubated with shaking at 400 rpm for 120 min at 25° C. prior to centrifugation (1500 rpm, 10 min). Samples were analyzed on TopCounter™ (Packard). The IC₅₀ was calculated using (one site binding competition analysis) GraphPad Prism5 as a measure of receptor affinity.
Membranes were prepared in the following way; the cells were rinsed with PBS and incubated with Versene for approximately 5 min before harvesting. The cells were flushed with PBS and the cell-suspension was centrifuged for 5 min at 1000 rpm. Cells were homogenized (Ultrathurrax) in a buffer containing 20 mM Na-HEPES and 10 mM EDTA (pH 7.4) and centrifuged at 20.000 rpm for 15 min. The resulting pellet was resuspended, homogenized and centrifuged (20.000 rpm, 15 min) in a buffer containing 20 mM Na-HEPES and 0.1 mM EDTA (pH 7.4, buffer 2). The resulting pellet was resuspended in buffer 2 and protein concentration was measured (BCA protein Assay, Pierce). The homogenate was kept cold during the whole procedure. The membranes were kept at −80° C. until use. Assay was performed in a 384 well Optiplate (PerkinElmer) in a total volume of 40 ul. Membranes were mixed with SPA beads.

Ratio hCT/hAmylin binding | Binder
24.4 | B1
16.5 | B2
64.4 | B3
23.6 | B4
10.8 | B5
16 | B6
19.1 | B7
36 | B8
29 | B9

biological target: T1, rat calcitonin receptor; assay: SPA competition with 125I-calcitonin, membranes of BHK cells with rat calcitonin receptor (Assay VIII)

IC50 [nM] | Binder
27.9 | B1
47.2 | B2
89.2 | B3
114 | B4
51.4 | B5
26.5 | B6
55.2 | B7
5.63 | B8
96.4 | B9

biological target: T3, rat amylin receptor (rat calcitonin …); assay: SPA competition with 125I-rat amylin, membranes of BHK cells with rat calcitonin receptor + rat RAMP3 (Assay VI)

IC50 [nM] | Binder
1.48 | B1
1.12 | B2
1.72 | B3
3.14 | B4
1.08 | B5
0.619 | B6
1.21 | B7
0.069 | B8
1.77 | B9
